Assay results reported in publication PMC8514943, “^68Ga-Labeled GX1 Dimer: A Novel Probe for PET/Cerenkov Imaging Targeting Gastric Cancer” (Frontiers in Oncology, 2021).
Like-named read-outs stand apart in the source and are kept apart here. Positions of bridges follow the written chain, without caps; N, C: chain ends. Residues, ends and D or L forms follow the SMILES beside them. *: point of attachment. DOTA = O=C(O)CN1CCN(CC(=O)O)CCN(CC(=O)*)CCN(CC(=O)O)CC1

Legend:
BGC-823 tumors = assay: Biodistribution in tumor-bearing nude mice; assay type: in vivo, nude BALB/c mice
Method: All of the experiments were performed according to a protocol approved by the Fourth Military Medical University (FMMU) Animal Care and Use Committee. A total of 0.2 ml of cell suspension (BGC823, 2 × 10^6 cells) was implanted by subcutaneous injection into the right upper limb of athymic female nude BALB/c mice (age, 4–6 weeks; weight, 15–20 g). When the diameter of the tumor reached approximately 8 mm, it could be used for imaging. […] For the biodistribution of the probes, 3.7 × 10^6 Bq of probe was injected intravenously. […] The percentage of injected dose per gram (%ID/g) was calculated. […] The %ID/g was calculated as described previously.

[1] = 37°C, determined at 0, 30, 60, 90 min, value holds for 90 min, radioactive TLC
Method: We used four kinds of solutions to observe the stability of the probes, namely, raw solution, normal saline, fresh mouse serum, and human serum. The specific methods were as follows: the probe and each solution were mixed according to a volume ratio of 1:100, and the original solution was kept as a control. The radiochemical purity of the solution was determined at 0, 30, 60, and 90 min. A curve was drawn to observe the stability of the probe in vitro and to speculate whether the probe would be removed from the standard in vivo.
Four kinds of solutions were used to observe the stability of the probe, namely, raw solution, normal saline, fresh mouse serum, and human serum. The probe was mixed with each solution at a volume ratio of 1:100, and the original solution was retained as a control. The radiochemical purity of the solution was determined after incubation for 0, 30, 60, and 90 min at 37°C.

## NCCCC[C@H](NC(=O)[C@H](CCC(=O)O)NC(=O)[C@H](CCCCN)NC(=O)[C@@H]1CSSC[C@H](NC(=O)CN2CCN(CC(=O)O)CCN(CC(=O)O)CCN(CC(=O)O)CC2)C(=O)NCC(=O)N[C@@H](CC(N)=O)C(=O)N[C@@H](CO)C(=O)N[C@@H](CC(N)=O)C(=O)N2CCC[C@H]2C(=O)N[C@@H](CCCCN)C(=O)N[C@@H](CO)C(=O)N1)C(=O)N[C@H]1CSSC[C@@H](C(=O)O)NC(=O)[C@H](CO)NC(=O)[C@H](CCCCN)NC(=O)[C@@H]2CCCN2C(=O)[C@H](CC(N)=O)NC(=O)[C@H](CO)NC(=O)[C@H](CC(N)=O)NC(=O)CNC1=O [^68Ga-DOTA-KEK-(GX1)2, metal not drawn] ({DOTA}-CGNSNPKSCKEKCGNSNPKSC-OH; disulfide 1-9, 13-21)
BGC-823 tumors; 3.7 × 10^6 Bq i.v., 30, 60, 90 min, while kidney and liver radioactivity reduced rapidly
  radiation of the tumor over time: decreased relatively slowly
BGC-823 tumors; 3.7 × 10^6 Bq i.v., 60 min, except for the liver and kidney
  %ID/g of the tumor compared with organs: higher than that of other normal organs
BGC-823 tumors; 3.7 × 10^6 Bq i.v., 60 min postinjection
  uptake by tumors compared between probes (%ID/g): much higher than that of ^68Ga-DOTA-GX1
BGC-823 tumors; tumor/nontumor ratios, 30, 60, 90 min after injection
  T/NT ratios: increased over time
[1]; fresh mouse serum, probe:solution 1:100 v/v
  labeling rate (radiochemical purity) remaining: above 95%
[1]; human serum, probe:solution 1:100 v/v
  labeling rate (radiochemical purity) remaining: above 95%
[1]; normal saline, probe:solution 1:100 v/v
  labeling rate (radiochemical purity) remaining: above 95%
[1]; raw (original) solution kept as control
  labeling rate (radiochemical purity) remaining: above 95%
